Target: FcεRI-bound IgE (human IgE loaded on CHO 3D10 cells expressing FcεRI alpha chain) (human) (UniProt P01854)
Assay: FACS on IgE-loaded CHO 3D10 cells (FIG. 4)

FcεRI-bound IgE (human IgE loaded on CHO 3D10 cells expressing FcεRI alpha chain) (human), sequence (P01854 whole entry, chain 1 of 2): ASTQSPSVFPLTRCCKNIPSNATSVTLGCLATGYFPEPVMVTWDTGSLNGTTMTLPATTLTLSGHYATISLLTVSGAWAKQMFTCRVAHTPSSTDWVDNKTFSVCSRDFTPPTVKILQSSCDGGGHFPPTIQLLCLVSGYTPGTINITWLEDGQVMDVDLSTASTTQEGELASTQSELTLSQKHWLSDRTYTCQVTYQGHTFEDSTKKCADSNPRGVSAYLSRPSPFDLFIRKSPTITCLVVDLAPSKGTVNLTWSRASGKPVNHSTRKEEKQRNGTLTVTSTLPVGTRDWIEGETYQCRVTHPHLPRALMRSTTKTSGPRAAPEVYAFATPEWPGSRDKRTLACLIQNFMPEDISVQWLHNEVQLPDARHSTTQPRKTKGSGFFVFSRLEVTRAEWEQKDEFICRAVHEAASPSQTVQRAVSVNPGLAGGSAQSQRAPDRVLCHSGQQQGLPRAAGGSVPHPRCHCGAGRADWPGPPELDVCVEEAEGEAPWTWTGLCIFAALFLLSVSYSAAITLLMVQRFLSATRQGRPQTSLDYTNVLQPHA
FcεRI-bound IgE (human IgE loaded on CHO 3D10 cells expressing FcεRI alpha chain) (human), sequence (P12319 26-257, chain 2 of 2, further chain): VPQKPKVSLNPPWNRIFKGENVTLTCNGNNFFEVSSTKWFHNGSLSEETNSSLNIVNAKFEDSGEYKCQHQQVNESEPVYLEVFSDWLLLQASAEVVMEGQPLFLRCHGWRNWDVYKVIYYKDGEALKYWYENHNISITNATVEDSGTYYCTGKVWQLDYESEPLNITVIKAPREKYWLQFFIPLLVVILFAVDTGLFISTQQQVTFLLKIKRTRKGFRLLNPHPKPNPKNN

mean channel fluorescence at 0.1 µg/ml (mean channel fluorescence) | Substance
7.3 | MOPC21 (murine IgG1 control antibody)
4.7 | humanized mAb 4D5 (human IgG1 control antibody)
6.4 | murine anti-human IgE monoclonal antibody MaE11

Reference: patent publication US20080003218A1
